Measured values as given in publication PMC10878242.

Target: mAb-1E7
Assay: SPR; Biacore 8K; mAb-1E7 immobilized on a Protein G chip; PCV2-Cap or Nb61 injected at 30 µL/min, 1.5625 to 25 nM; 10 mM HEPES pH 7.4, 150 mM NaCl, 3 mM EDTA, 0.05% Tween 20

Sequence of mAb-1E7 (heavy, as listed by the source, chain 1 of 2): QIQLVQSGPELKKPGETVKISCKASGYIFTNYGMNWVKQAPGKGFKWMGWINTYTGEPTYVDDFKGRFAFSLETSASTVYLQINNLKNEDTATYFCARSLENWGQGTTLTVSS
Sequence of mAb-1E7 (light, as listed by the source, chain 2 of 2): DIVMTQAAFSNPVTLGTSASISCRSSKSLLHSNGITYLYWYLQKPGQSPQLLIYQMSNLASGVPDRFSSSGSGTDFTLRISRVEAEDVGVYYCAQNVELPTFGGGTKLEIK

B1: Nb61 (VHH)
VHH: QVQLQESGGGSVQAGGSLRLSCAGSDFPYCSYDMSWYRQAPGKEREFVSGIDRDGTIRYADAVKGRFTISQGDAKNTLYLQMNSLKPEDTAMYYCKTTPRNYNDFLGCVDYWGQGTQVTVSS
Binder B1 has a Kd of 12 nM, a koff of 0.0222 s⁻¹ and a kon of 1.86e+06 M⁻¹ s⁻¹.
